Data on 1 substance can be found in patent US20090317358A1.

The assay deals with human high affinity receptor for IL2 (IL2R) (human) (UniProt P01589). The assay can be described thus: cell-based or functional assay.
Chain of UniProt P01589 (P01589 22-272, chain 1 of 3): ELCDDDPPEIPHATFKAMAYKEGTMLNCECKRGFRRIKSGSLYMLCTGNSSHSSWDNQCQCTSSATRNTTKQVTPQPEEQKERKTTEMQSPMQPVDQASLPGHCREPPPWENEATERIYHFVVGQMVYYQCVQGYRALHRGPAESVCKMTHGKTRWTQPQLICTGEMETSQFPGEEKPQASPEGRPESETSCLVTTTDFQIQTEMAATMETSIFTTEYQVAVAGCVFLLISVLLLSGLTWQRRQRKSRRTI
Chain of UniProt P01589 (P14784 27-551, chain 2 of 3, further chain): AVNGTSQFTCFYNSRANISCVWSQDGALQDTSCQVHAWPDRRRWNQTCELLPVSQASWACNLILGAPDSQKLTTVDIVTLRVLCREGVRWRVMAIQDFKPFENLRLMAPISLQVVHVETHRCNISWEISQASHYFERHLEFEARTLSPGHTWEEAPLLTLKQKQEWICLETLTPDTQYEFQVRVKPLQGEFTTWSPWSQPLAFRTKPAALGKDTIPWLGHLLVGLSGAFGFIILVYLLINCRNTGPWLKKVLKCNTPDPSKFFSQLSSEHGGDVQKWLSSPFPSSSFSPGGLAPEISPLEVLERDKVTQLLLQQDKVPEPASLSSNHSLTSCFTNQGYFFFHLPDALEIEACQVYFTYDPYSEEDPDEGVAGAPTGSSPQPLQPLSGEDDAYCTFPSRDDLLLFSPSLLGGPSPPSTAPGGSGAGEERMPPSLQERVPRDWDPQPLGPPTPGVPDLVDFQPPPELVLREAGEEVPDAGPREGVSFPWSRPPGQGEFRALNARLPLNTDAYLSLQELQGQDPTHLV
Chain of UniProt P01589 (P31785 23-369, chain 3 of 3, further chain): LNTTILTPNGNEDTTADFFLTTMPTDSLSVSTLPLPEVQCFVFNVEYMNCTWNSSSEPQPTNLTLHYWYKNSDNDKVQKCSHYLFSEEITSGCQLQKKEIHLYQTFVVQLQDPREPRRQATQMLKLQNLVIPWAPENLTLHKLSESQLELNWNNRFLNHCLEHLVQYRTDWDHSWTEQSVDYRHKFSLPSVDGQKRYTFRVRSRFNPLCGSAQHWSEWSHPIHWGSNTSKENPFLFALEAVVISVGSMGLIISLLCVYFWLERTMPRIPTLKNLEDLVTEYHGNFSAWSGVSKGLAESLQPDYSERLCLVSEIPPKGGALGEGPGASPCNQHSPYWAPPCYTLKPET

For the substance IL2-Bax chimeric protein, the M1, fresh lymphocytes analyzed by FACS, IL2-Bax 1 µg (Experiment No. 1) amounted to 17.5; the M1, fresh lymphocytes analyzed by FACS, IL2-Bax 5 µg (Experiment No. 1) was determined as 24.3; the M1, fresh lymphocytes analyzed by FACS, IL2-Bax 10 µg (Experiment No. 1) worked out at 42.1; the M1 - 2, fresh lymphocytes analyzed by FACS, IL2-Bax 1 µg (Experiment No. 1) amounted to 13.5. This substance also gave an M1 - 2, fresh lymphocytes analyzed by FACS, IL2-Bax 5 µg (Experiment No. 1) of 20; an M1 - 2, fresh lymphocytes analyzed by FACS, IL2-Bax 10 µg (Experiment No. 1) of 35; an M2, fresh lymphocytes analyzed by FACS, IL2-Bax 1 µg (Experiment No. 1) of 4; an M2, fresh lymphocytes analyzed by FACS, IL2-Bax 5 µg (Experiment No. 1) of 4.3. The M2, fresh lymphocytes analyzed by FACS, IL2-Bax 10 µg (Experiment No. 1) was found to be 9.1; the UL + UR, fresh lymphocytes analyzed by FACS, IL2-Bax 1 µg (Experiment No. 2) is 10.5; the UL + UR, fresh lymphocytes analyzed by FACS, IL2-Bax 10 µg (Experiment No. 2) worked out at 31.6; the UL, fresh lymphocytes analyzed by FACS, IL2-Bax 1 µg (Experiment No. 2) turned out to be 4.98. This substance gave a UL, fresh lymphocytes analyzed by FACS, IL2-Bax 10 µg (Experiment No. 2) of 14.7; a UR, fresh lymphocytes analyzed by FACS, IL2-Bax 1 µg (Experiment No. 2) of 5.56; a UR, fresh lymphocytes analyzed by FACS, IL2-Bax 10 µg (Experiment No. 2) of 16.8; an apoptotic cells in fresh human lymphocytes treated with IL2-Bax (FACS) of 2 to 14%. This substance gave an increase in the percentage of the apoptotic-cell population (sub-G1, FACS), HUT102 cells, highest concentration tested of 3.6 fold.
